Measurements published in article doi:10.1101/2023.03.31.534734 (bioRxiv, 2023).

Biological target: recombinant, non-biotinylated HLA-A*01:01 (α-chain, β2m, peptide […]) (Homo sapiens, HLA-A*01:01; peptide from …, strain)
Assay: crystal structure

binding result: binds
B1: Fab of rmAb E07 (Fab, V domains shown)
VH: QVQLQESGGGVVQPGGSLRLSCAASGFNFSNYGMHWVRQTPGKGLEWVASIPYDGSHQWHADSVKGRFTISRDNSKNTLYLQINSLRPEDTAMYYCSKARISYLSAPAWWFDPWGQGTLVTVSS
VL: QSVSTQPPSVSVAPGQTARITCGGNNIGSKSVHWYRQKPGQAPVLVVYDNNARPSGIPERISGSNFANTATLTISRVEAGDEADYYCHVWDSSSDHVVFGGGTKLTVL
